Results: patent publication US20060153853A1

Experiments:
[1] = molecular target: IGF-II (insulin-like growth factor II) (UniProt P01344); test: method not stated in the legend (presumably BIAcore)
[2] = molecular target: IGF-I (insulin-like growth factor I) (UniProt P05019); test: as above
[3] = molecular target: IGF-I (insulin-like growth factor I) (UniProt P05019); test: SPR (BIAcore) on immobilised IGF-I; text summing up Table 2
[4] = molecular target: IGF-II (insulin-like growth factor II) (UniProt P01344); test: SPR (BIAcore) on immobilised IGF-II; text summing up Table 3
[5] = molecular target: IGF-I (insulin-like growth factor I) (UniProt P05019); test: SPR (BIAcore), IGF-I amine-coupled to CM5 chip; ratio against hIGFBP-2
[6] = molecular target: IGF-II (insulin-like growth factor II) (UniProt P01344); test: SPR (BIAcore), IGF-II amine-coupled to CM5 chip; ratio against hIGFBP-2
[7] = molecular target: IGF-I (insulin-like growth factor I) (UniProt P05019); test: SPR (BIAcore), IGF-I amine-coupled to CM5 chip, IGFBP-2 as analyte, Langmuir 1:1 fit
[8] = molecular target: IGF-II (insulin-like growth factor II) (UniProt P01344); test: SPR (BIAcore), IGF-II amine-coupled to CM5 chip, IGFBP-2 as analyte, Langmuir 1:1 fit

Chain of IGF-I (insulin-like growth factor I) (P05019 49-118 limits assumed): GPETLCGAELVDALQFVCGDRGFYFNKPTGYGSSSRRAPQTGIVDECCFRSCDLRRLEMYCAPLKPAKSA
Chain of IGF-II (insulin-like growth factor II) (P01344 25-91 limits assumed): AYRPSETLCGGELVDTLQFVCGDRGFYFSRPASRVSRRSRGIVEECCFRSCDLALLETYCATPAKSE

Row | fold lower affinity (reference not named, presumably native IGFBP-2) [1] | fold lower affinity (reference not named, presumably native IGFBP-2) [2] | fold decrease in affinity against native hIGFBP-2 [3] | fold decrease in affinity against native hIGFBP-2 [4] | Rel. KD (KD of hIGFBP-2/KD of hIGFBP-2 mutant) [5] | Rel. KD (KD of hIGFBP-2/KD of hIGFBP-2 mutant) [6] | Kd [7] | koff [7] | kon [7] | Kd [8] | koff [8] | kon [8] | Substance
1 | 2 fold | – | – | – | – | – | – | – | – | – | – | – | Des (114-170) K180A K181A hIGFBP-2 (from UniProt P18065 36-113; P18065 207-325)
2 | – | 2 fold | 5 fold | 2 fold | 0.26 | 0.51 | 3.63 nM | 0.000425 s⁻¹ | 117000 M⁻¹ s⁻¹ | 1.14 nM | 0.00013 s⁻¹ | 114000 M⁻¹ s⁻¹ | Des(114-170)His hIGFBP-2 (from UniProt P18065 36-113; P18065 207-325)
